Experimental data from US20230287145A1 (Hoffmann-La Roche, published 2023).

B1: Humanized variant H3L3 of anti-idiotypic antibody 4.24.72 (IgG) (antibody, V domains shown)
VH: QVQLVQSGSELKKPGASVKVSCKASGYTVTDYSMNWVRQAPGQGLEWMGWINTETGEPRYTQGFKGRFVFSLDTSVSTAYLQISSLKAEDTAVYYCAREGDYDVFDYWGQGTLVTVSS
VL: DIVMTQSPDSLAVSLGERATINCRASKSVSTSSYSYMHWYQQKPGQPPKLLIKYVSYLESGVPDRFSGSGSGTDFTLTISSLQAEDVAVYYCQQSREFPYTFGQGTKLEIK
notes: Produced and purified as IgG; also called Mask humanization variant H3L3
B2: Humanized variant H7L5 of anti-idiotypic antibody 4.24.72 (IgG) (antibody, V domains shown)
VH: QVQLVQSGAEVKKPGASVKVSCKASGYTVTDYSMNWVRQAPGQGLEWMGWINTETGEPRYTDDFKGRVTMTRDTSISTAYMELSRLRSDDTAVYYCAREGDYDVFDYWGQGTLVTVSS
VL: DIVMTQSPDSLAVSLGERATINCRASKSVSTSSYSYMHWYQQKPGQPPKLLIYYVSYLESGVPDRFSGSGSGTDFTLTISSLQAEDVAVYYCQHSREFPYTFGQGTKLEIK
notes: Produced and purified as IgG; also called Mask humanization variant H7L5
B3: TYRP1 TCB containing the parental CD3 binder CD3orig (bispecific antibody, human IgG1, kappa, L234A L235A)
heavy 1: not shown
heavy 2: QVQLVQSGAEVKKPGASVKVSCKASGFNIKDYFLHWVRQAPGQGLEWMGWINPDNGNTVYAQKFQGRVTMTADTSTSTVYMELSSLRSEDTAVYYCTRRDYTYEKAALDYWGQGTLVTVSSASTKGPSVFPLAPSSKSTSGGTAALGCLVEDYFPEPVTVSWNSGALTSGVHTFPAVLQSSGLYSLSSVVTVPSSSLGTQTYICNVNHKPSNTKVDEKVEPKSCDKTHTCPPCPAPEAAGGPSVFLFPPKPKDTLMISRTPEVTCVVVDVSHEDPEVKFNWYVDGVEVHNAKTKPREEQYNSTYRVVSVLTVLHQDWLNGKEYKCKVSNKALGAPIEKTISKAKGQPREPQVCTLPPSRDELTKNQVSLSCAVKGFYPSDIAVEWESNGQPENNYKTTPPVLDSDGSFFLVSKLTVDKSRWQQGNVFSCSVMHEALHNHYTQKSLSLSP
light 1: DIQMTQSPSSLSASVGDRVTITCRASGNIYNYLAWYQQKPGKVPKLLIYDAKTLADGVPSRFSGSGSGTDFTLTISSLQPEDVATYYCQHFWSLPFTFGQGTKLEIKRTVAAPSVFIFPPSDRKLKSGTASVVCLLNNFYPREAKVQWKVDNALQSGNSQESVTEQDSKDSTYSLSSTLTLSKADYEKHKVYACEVTHQGLSSPVTKSFNRGEC
light 2: EVQLLESGGGLVQPGGSLRLSCAASGFTFSTYAMNWVRQAPGKGLEWVSRIRSKYNNYATYYADSVKGRFTISRDDSKNTLYLQMNSLRAEDTAVYYCVRHGNFGNSYVSWFAYWGQGTLVTVSSASVAAPSVFIFPPSDEQLKSGTASVVCLLNNFYPREAKVQWKVDNALQSGNSQESVTEQDSKDSTYSLSSTLTLSKADYEKHKVYACEVTHQGLSSPVTKSFNRGEC
notes: also called CD3orig in TCB format
B4: TYRP1 TCB containing optimized anti-CD3 antibody clone P021.045 (bispecific antibody, human IgG1, kappa, L234A L235A)
heavy 1: not shown
heavy 2: QVQLVQSGAEVKKPGASVKVSCKASGFNIKDYFLHWVRQAPGQGLEWMGWINPDNGNTVYAQKFQGRVTMTADTSTSTVYMELSSLRSEDTAVYYCTRRDYTYEKAALDYWGQGTLVTVSSASTKGPSVFPLAPSSKSTSGGTAALGCLVEDYFPEPVTVSWNSGALTSGVHTFPAVLQSSGLYSLSSVVTVPSSSLGTQTYICNVNHKPSNTKVDEKVEPKSCDKTHTCPPCPAPEAAGGPSVFLFPPKPKDTLMISRTPEVTCVVVDVSHEDPEVKFNWYVDGVEVHNAKTKPREEQYNSTYRVVSVLTVLHQDWLNGKEYKCKVSNKALGAPIEKTISKAKGQPREPQVCTLPPSRDELTKNQVSLSCAVKGFYPSDIAVEWESNGQPENNYKTTPPVLDSDGSFFLVSKLTVDKSRWQQGNVFSCSVMHEALHNHYTQKSLSLSP
light 1: DIQMTQSPSSLSASVGDRVTITCRASGNIYNYLAWYQQKPGKVPKLLIYDAKTLADGVPSRFSGSGSGTDFTLTISSLQPEDVATYYCQHFWSLPFTFGQGTKLEIKRTVAAPSVFIFPPSDRKLKSGTASVVCLLNNFYPREAKVQWKVDNALQSGNSQESVTEQDSKDSTYSLSSTLTLSKADYEKHKVYACEVTHQGLSSPVTKSFNRGEC
light 2: EVQLLESGGGLVQPGGSLRLSCAASGFTFSSYAMNWVRQAPGKGLEWVSRIRSKYNNYATYYADSVKGRFTISRDDSKNTLYLQMNSLRAEDTAVYYCVRASNFPSSYVSYFAYWGQGTLVTVSSASVAAPSVFIFPPSDEQLKSGTASVVCLLNNFYPREAKVQWKVDNALQSGNSQESVTEQDSKDSTYSLSSTLTLSKADYEKHKVYACEVTHQGLSSPVTKSFNRGEC
notes: 2+1 IgG CrossFab, inverted, with charge modifications; knob-into-hole, P329G L234A L235A; also called CD3opt (P021.045)
B5: TYRP1 TCB containing optimized anti-CD3 antibody clone P035.064 (bispecific antibody, human IgG1, kappa, L234A L235A)
heavy 1: not shown
heavy 2: QVQLVQSGAEVKKPGASVKVSCKASGFNIKDYFLHWVRQAPGQGLEWMGWINPDNGNTVYAQKFQGRVTMTADTSTSTVYMELSSLRSEDTAVYYCTRRDYTYEKAALDYWGQGTLVTVSSASTKGPSVFPLAPSSKSTSGGTAALGCLVEDYFPEPVTVSWNSGALTSGVHTFPAVLQSSGLYSLSSVVTVPSSSLGTQTYICNVNHKPSNTKVDEKVEPKSCDKTHTCPPCPAPEAAGGPSVFLFPPKPKDTLMISRTPEVTCVVVDVSHEDPEVKFNWYVDGVEVHNAKTKPREEQYNSTYRVVSVLTVLHQDWLNGKEYKCKVSNKALGAPIEKTISKAKGQPREPQVCTLPPSRDELTKNQVSLSCAVKGFYPSDIAVEWESNGQPENNYKTTPPVLDSDGSFFLVSKLTVDKSRWQQGNVFSCSVMHEALHNHYTQKSLSLSP
light 1: DIQMTQSPSSLSASVGDRVTITCRASGNIYNYLAWYQQKPGKVPKLLIYDAKTLADGVPSRFSGSGSGTDFTLTISSLQPEDVATYYCQHFWSLPFTFGQGTKLEIKRTVAAPSVFIFPPSDRKLKSGTASVVCLLNNFYPREAKVQWKVDNALQSGNSQESVTEQDSKDSTYSLSSTLTLSKADYEKHKVYACEVTHQGLSSPVTKSFNRGEC
light 2: EVQLLESGGGLVQPGGSLRLSCAASGFDFDNYAMNWVRQAPGKGLEWVSRIRSKHNGYATYYADSVKGRFTISRDDSKNTLYLQMNSLRAEDTAVYYCVRASNFPSSYVSYFGYWGQGTLVTVSSASVAAPSVFIFPPSDEQLKSGTASVVCLLNNFYPREAKVQWKVDNALQSGNSQESVTEQDSKDSTYSLSSTLTLSKADYEKHKVYACEVTHQGLSSPVTKSFNRGEC
notes: 2+1 IgG CrossFab, inverted, with charge modifications; knob-into-hole, P329G L234A L235A; also called CD3opt (P035.064)
B6: TYRP1 TCB containing optimized anti-CD3 antibody clone P004.042 (bispecific antibody, human IgG1, kappa, L234A L235A)
heavy 1: not shown
heavy 2: QVQLVQSGAEVKKPGASVKVSCKASGFNIKDYFLHWVRQAPGQGLEWMGWINPDNGNTVYAQKFQGRVTMTADTSTSTVYMELSSLRSEDTAVYYCTRRDYTYEKAALDYWGQGTLVTVSSASTKGPSVFPLAPSSKSTSGGTAALGCLVEDYFPEPVTVSWNSGALTSGVHTFPAVLQSSGLYSLSSVVTVPSSSLGTQTYICNVNHKPSNTKVDEKVEPKSCDKTHTCPPCPAPEAAGGPSVFLFPPKPKDTLMISRTPEVTCVVVDVSHEDPEVKFNWYVDGVEVHNAKTKPREEQYNSTYRVVSVLTVLHQDWLNGKEYKCKVSNKALGAPIEKTISKAKGQPREPQVCTLPPSRDELTKNQVSLSCAVKGFYPSDIAVEWESNGQPENNYKTTPPVLDSDGSFFLVSKLTVDKSRWQQGNVFSCSVMHEALHNHYTQKSLSLSP
light 1: DIQMTQSPSSLSASVGDRVTITCRASGNIYNYLAWYQQKPGKVPKLLIYDAKTLADGVPSRFSGSGSGTDFTLTISSLQPEDVATYYCQHFWSLPFTFGQGTKLEIKRTVAAPSVFIFPPSDRKLKSGTASVVCLLNNFYPREAKVQWKVDNALQSGNSQESVTEQDSKDSTYSLSSTLTLSKADYEKHKVYACEVTHQGLSSPVTKSFNRGEC
light 2: EVQLLESGGGLVQPGGSLRLSCAASGFQFDNYAMNWVRQAPGKGLEWVSRIRTKYNEYATYYADSVKGRFTISRDDSKNTLYLQMNSLRAEDTAVYYCVRASNFPQSYVSYFGYWGQGTLVTVSSASVAAPSVFIFPPSDEQLKSGTASVVCLLNNFYPREAKVQWKVDNALQSGNSQESVTEQDSKDSTYSLSSTLTLSKADYEKHKVYACEVTHQGLSSPVTKSFNRGEC
notes: 2+1 IgG CrossFab, inverted, with charge modifications; knob-into-hole, P329G L234A L235A; also called CD3opt (P004.042)

Experiments:
[1] = target: T1, biotinylated anti-human CD3 IgG (anti-CD3 P035.093) (biotinylated (site not stated)); assay: SPR; biotinylated anti-CD3 P035.093 IgG on CAP chip, anti-idiotypic IgG at 1 µg/ml; response normalised to anti-human IgG surface and to the unstressed sample; after 14 d at 40 °C pH 6.0
T1 construct: IgG format of this reagent is not described further; immobilised on a CAP chip; also called CD3 IgG (P035.093)
T1 sequence (VH, as listed by the source, chain 1 of 2): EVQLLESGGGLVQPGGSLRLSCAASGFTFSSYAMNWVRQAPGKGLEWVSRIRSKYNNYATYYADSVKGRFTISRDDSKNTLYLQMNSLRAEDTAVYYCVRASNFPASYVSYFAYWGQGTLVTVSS
T1 sequence (VL, as listed by the source, chain 2 of 2): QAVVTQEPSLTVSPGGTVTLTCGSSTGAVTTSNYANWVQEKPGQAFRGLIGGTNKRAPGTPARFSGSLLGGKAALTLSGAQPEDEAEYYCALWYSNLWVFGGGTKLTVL
Procedure: (§1) Flow cell 1 was kept as mock surface. […] Dissociation was monitored for 30 s, the flow rate was set to 5 μl/min. The CAP chip was regenerated by injecting a mix of NaOH and Guadinium-hydrochloride for 120 s, provided in the biotin capture kit. Bulk refractive index differences were corrected by subtracting the response obtained from flow cell 1 (mock surface).

[2] = target: T1, biotinylated anti-human CD3 IgG …; assay: SPR; biotinylated anti-CD3 P035.093 IgG on CAP chip, anti-idiotypic IgG at 1 µg/ml; response normalised to anti-human IgG surface and to the unstressed sample; after 14 d at 37 °C pH 7.4
Procedure: Therefore, they were analyzed for thermal stability and remaining target binding after 14 d stress conditions (40° C. at pH6.0 or 37° C. at pH7.4).
as §1

[3] = target: T2, Human CD3ε stalk-Fc(knob)-Avi/CD3δ stalk-Fc(hole) (human); assay: SPR, biotinylated human CD3ε/δ on SA chip, TCB at 2 µg/ml; response normalised to anti-huIgG capture and referenced to the unstressed sample; after 2 weeks at pH 7.4/37 °C
T2 construct: Heterodimeric Fc fusion; also called human CD3ε/δ; Human CD3 epsilon stalk-Fc(knob)-Avi
Procedure: (§2) In order to assess the effect of the deamidation site removal and its effect on the stability of the antibodies, the optimized anti-CD3 antibodies (in TCB format) were incubated for 14 days at 37° C., pH 7.4 and at 40° C., pH 6 and further analyzed by SPR for their binding capability to human CD3ε/δ. Samples stored at −80° C. pH 6 were used as reference. The reference samples and the samples stressed at 40° C. were in 20 mM His, 140 mM NaCl, pH 6.0, and the samples stressed at 37° C. in PBS, pH 7.4, all at a concentration of 1.0 mg/ml. After the stress period (14 days) samples in PBS were dialyzed back to 20 mM His, 140 mM NaCl, pH 6.0 for further analysis.
(§3) All SPR experiments were performed on a Biacore T200 instrument (GE Healthcare) at 25° C. with HBS-P+ (10 mM HEPES, 150 mM NaCl pH 7.4, 0.05% Surfactant P20) as running and dilution buffer. Biotinylated human CD3ε/δ (see Example 3, SEQ ID NOs 41 and 42) as well as biotinylated anti-huIgG (Capture Select, Thermo Scientific, #7103262100) were immobilized on a Series S Sensor Chip SA (GE Healthcare, #29104992), resulting in surface densities of at least 1000 resonance units (RU). Anti-CD3 antibodies with a concentration of 2 μg/ml were injected for 30 s at a flow rate of 5 μl/min, and dissociation was monitored for 120 s. The surface was regenerated by injecting 10 mM glycine pH 1.5 for 60 s. Bulk refractive index differences were corrected by subtracting blank injections and by subtracting the response obtained from a blank control flow cell. For evaluation, the binding response 5 seconds after injection end was taken. To normalize the binding signal, the CD3 binding was divided by the anti-huIgG response (the signal (RU) obtained upon capture of the CD3 antibody on the immobilized anti-huIgG antibody). The relative binding activity was calculated by referencing each temperature stressed sample to the corresponding, non-stressed sample.

[4] = target: T2, Human CD3ε stalk-Fc(knob)-Avi/CD3δ …; assay: SPR, biotinylated human CD3ε/δ on SA chip, TCB at 2 µg/ml; response normalised to anti-huIgG capture and referenced to the unstressed sample; after 2 weeks at pH 6.0/40 °C
Procedure: as §2, §3

Binder	Rel. active concentration [%] [1] [%]	Rel. active concentration [%] [2] [%]	binding activity [%] [3] [%]	binding activity [%] [4] [%]
B1	97	87	–	–
B2	98	80	–	–
B3	–	–	65	95
B4	–	–	95	99
B5	–	–	96	97
B6	–	–	98	98
